Assay results: the supplement of paper PMC7877785
± gives the uncertainty stated by the source.

Assay: self-splicing fitness, log relative to wild type (ln ratio); higher = more splicing; Tetrahymena group I intron in knt gene, E. coli kanamycin selection, DiMSum; sequences stand for … in CUCUCU…GGAGGGAAAAGUUAUCAGGCAUGCACCUGGUAGCUAGUCUUUAAACCAAUAGAUUGCAUCGGUUUAAAAGGCAAGACCGUCAAAUUGCGGGAAAGGGGUCAACAGCCGUUCAGUACCAAGUCUCAGGGGAAACUUUGAGAUGGCCUUGCAAAGGGUAUGGUAAUAAGCUGACGGACAUGGUCCUAACCACGCAGCCAAGUCCUAAGUCAACAGAUCUUCUGUUGAUAUGGAUGCAGUUCACAGACUAAAUGUCGGUCGGGGAAGAUGUAUUCUUCUCAUAAGAUAUAGUCGGACCUCUCCUUAAUGGGAGCUAGCGGAUGAAGUGAUGCAACACUGGAGCCGCUGGGAACUAAUUUGUAUGCGAAAGUAUAUUGAUUAGUUUUGGAGUACUCGUGGUCG
Procedure, shortened: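 DiMSum derived fitness as the error-weighted combination of fold changes across replicates, kanamycin versus no kanamycin, normalised to wild type. E. coli BL21(DE3) held the library, which randomised all eight P1ex-region intron nucleotides within the knt kanamycin-resistance gene on pET-22b(+). Six replicate transformations grew overnight at 37°C or 30°C on LB agar with or without 25 μg/mL kanamycin, also containing 100 μg/mL carbenicillin, 50 μM IPTG and 0.2% rhamnose, and pooled colonies were amplicon-sequenced on an Illumina HiSeq 2500.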

| Sequence | self-splicing fitness (ln) (30 °C) | self-splicing fitness (ln) (37 °C) |
| --- | --- | --- |
| CCUCAGCAAUAUUACGACGA | -4.04 ± 0.33 | -2.86 ± 0.3 |
| CCUCAGCAAUAUUACGAGUA | -3.06 ± 0.21 | -2.38 ± 0.21 |
| CCUCAGCAAUAUUACGAUCC | -2.43 ± 0.44 | – |
| CCUCAGCAAUAUUACGAUCU | -3.75 ± 0.27 | -2.79 ± 0.23 |
| CCUCAGCAAUAUUACGCCAA | -2.26 ± 0.23 | – |
| CCUCAGCAAUAUUACGCCGA | -3.12 ± 0.24 | -3.48 ± 0.27 |
| CCUCAGCAAUAUUACGCUUA | -4.1 ± 0.3 | -2.11 ± 0.16 |
| CCUCAGCAAUAUUACGCUUC | -3.45 ± 0.39 | -3.01 ± 0.33 |
| CCUCAGCAAUAUUACGCUUU | -3.07 ± 0.14 | -2.79 ± 0.21 |
| CCUCAGCAAUAUUACGGAGU | -2.26 ± 0.089 | -1.03 ± 0.09 |
| CCUCAGCAAUAUUACGGCAG | -2.91 ± 0.18 | -1.15 ± 0.13 |
| CCUCAGCAAUAUUACGGCGC | -3.57 ± 0.2 | -2.45 ± 0.3 |
| CCUCAGCAAUAUUACGGCGU | -3.42 ± 0.21 | -2.64 ± 0.27 |
| CCUCAGCAAUAUUACGGGAG | -3.4 ± 0.14 | -2.42 ± 0.15 |
| CCUCAGCAAUAUUACGGGAU | -4.21 ± 0.2 | -2.55 ± 0.17 |
| CCUCAGCAAUAUUACGGGCC | -4.31 ± 0.3 | -2.77 ± 0.36 |
| CCUCAGCAAUAUUACGGGCU | -2.67 ± 0.18 | -2.57 ± 0.25 |
| CCUCAGCAAUAUUACGGGUG | -2.04 ± 0.06 | -0.955 ± 0.07 |
| CCUCAGCAAUAUUACGUGGU | -3.93 ± 0.11 | -2.5 ± 0.13 |
| CCUCAGCAAUAUUACGUGUU | -4.12 ± 0.2 | -3.41 ± 0.25 |
| CCUCAGCAAUAUUACGUUAU | -3.74 ± 0.17 | -2.49 ± 0.17 |
| CCUCAGCAAUAUUACGUUCG | -2.69 ± 0.077 | -0.795 ± 0.075 |
| CCUGAGCAAUAUUACGAAUU | -2.96 ± 0.2 | -2.15 ± 0.31 |
| CCUGAGCAAUAUUACGAUGC | -4.16 ± 0.28 | -2.75 ± 0.21 |
| CCUGAGCAAUAUUACGCACC | – | -1.74 ± 0.4 |
| CCUGAGCAAUAUUACGCCCU | – | -1.73 ± 0.33 |

| Sequence | self-splicing fitness (ln) (30 °C) | self-splicing fitness (ln) (37 °C) |
| --- | --- | --- |
| CCUGAGCAAUAUUACGGAAC | -2.63 ± 0.33 | -1.66 ± 0.31 |
| CCUGAGCAAUAUUACGGACA | -3.69 ± 0.28 | -1.64 ± 0.18 |
| CCUGAGCAAUAUUACGGAGU | -3.26 ± 0.31 | -1.92 ± 0.18 |
| CCUGAGCAAUAUUACGGCAC | – | -2.23 ± 0.26 |
| CCUGAGCAAUAUUACGGCCG | – | -2.21 ± 0.4 |
| CCUGAGCAAUAUUACGGCGG | -2.37 ± 0.13 | -1.92 ± 0.17 |
| CCUGAGCAAUAUUACGGGAA | -2.46 ± 0.27 | -0.571 ± 0.29 |
| CCUGAGCAAUAUUACGGGAU | -3.46 ± 0.24 | -1.63 ± 0.2 |
| CCUGAGCAAUAUUACGGGCU | -2.51 ± 0.16 | -2.3 ± 0.32 |
| CCUGAGCAAUAUUACGGUCU | – | -3.78 ± 0.42 |
| CCUGAGCAAUAUUACGGUUG | -3.44 ± 0.13 | -1.3 ± 0.1 |
| CCUGAGCAAUAUUACGUAGU | -3.18 ± 0.14 | -1.21 ± 0.14 |
| CCUGAGCAAUAUUACGUCUA | -2.86 ± 0.31 | -1.69 ± 0.3 |
| CCUGAGCAAUAUUACGUUGA | -3.7 ± 0.26 | -3.27 ± 0.25 |
| CCUUAGCAAUAUUACGAAUA | -2.52 ± 0.27 | -2.21 ± 0.5 |
| CCUUAGCAAUAUUACGAAUU | – | -2.29 ± 0.49 |
| CCUUAGCAAUAUUACGACAA | -3.31 ± 0.2 | -3.02 ± 0.35 |
| CCUUAGCAAUAUUACGACAC | -2 ± 0.14 | -2.1 ± 0.25 |
| CCUUAGCAAUAUUACGACAG | -1.81 ± 0.11 | -0.864 ± 0.14 |
| CCUUAGCAAUAUUACGACUA | – | -2.23 ± 0.5 |
| CCUUAGCAAUAUUACGACUG | -2.26 ± 0.12 | -0.308 ± 0.096 |
| CCUUAGCAAUAUUACGAUGA | -3 ± 0.43 | -1.71 ± 0.28 |
| CCUUAGCAAUAUUACGCCCG | -1 ± 0.13 | -1.49 ± 0.21 |
| CCUUAGCAAUAUUACGCGAA | -4.02 ± 0.26 | -2.62 ± 0.29 |
| CCUUAGCAAUAUUACGCGAG | -4.2 ± 0.31 | -3.27 ± 0.28 |
